Assay: soluble on expression in E. coli; label from the status in PepcDB or PDB records

**Q.** With “MGHHHHHHSHQELASKRVDIQNKRFYLDVKQNAKGRFLKIAEVGAGGNKSRLTLSMSVAVEFRDYLGDFIEHYAQLGPSQPPDLAQAQDEPRRALKSEFLVRENRKYYMDLKENQRGRFLRIRQTVNRGPGLGSTQGQTIALPAQGLIEFRDALAKLIDDYGVEEEPAELPEGTSLTVDNKRFFFDVGSNKYGVFMRVSEVKPTYRNSITVPYKVWAKFGHTFCKYSEEMKKIQEK” as the sequence, how does the “soluble on expression in E. coli” value read?
**A.** not soluble

**Q.** Which “soluble on expression in E. coli” value does the source give for “MSETVQLDVGGTIFKTSKSTLTKFNGFLKIMLESDIGLKIDESGSIFIDRSPKHFDLILNFMRDGDVVLPSCELTVKELLAEAQFYLLDELIELCSLKIEPVQAPKIKLRFIENDSQLLQILAAQQKPMLIIEYCMVGNDMSIPYNFNLYEFIEKQSHQFDIYFQRLSEDESSHKWKARIKWKPTENGYYSQFPYNLRINRGGRIIRDAKFLFLFFSSWLSSKNHCSLLDMCMIPIDCIVCPFQKISMCVPSLIRIPISSRFISRNIKIISFGLQR” here?
**A.** soluble

**Q.** Which “soluble on expression in E. coli” value does the source give for “MGSDKIHHHHHHMNVTTSTLADGREIIYFDDHELREGERVLHDSRDLPHTQPLSEIRHDPLTNTWVAYAAHRMNRTFMPPANENPLAPTTPGNLPTEIPSPTYDVVVFENRFPSFSMNIAVGEDWESYVDGIDLYPRRPALARCEVVCFTPDVDKSFKDLPVSRIRTVINAWAHRTEALSALSGVQQVFPFENRGEEIGVTLQHPHGQIYSYPFLSPRLQAIVQSAQYYAETHDGHDLFDAIIREESAVQTRVIERTEHFIVFVPAAAKWPVEAMVMPLRAVADFTELTDVERDDLAALLKRLYTAVDSFFEGVTKTPYIAGWTQAPVDPALRPFGRLHLQLFSLMRSPNRMKFLAGSESSQGVWINDTTPERIAQRFKEVWPHATLD” here?
**A.** not soluble

**Q.** With “SAKGGKGPKGKKITLNVAKNCIKITFDGRKRLDLSKMGITTFPKCILRLSDIDELDLSRNMIRKIPDSIAKFQNLRWLDLHSNYIDKLPESIGQMTSLLFLNVSNNRLTTNGLPVELNQLKNIRTVNLGLNHLDSVPTTLGALKELHEVGLHDNLLTTIPASIAKLPKLKKLNIKRNPFPNADESEMFVDSIKRLENLYLVEEKDMCSSCLQRCQQARDKLNKIKSMAPSAPRKALFSNLVSPNSTAKDAQEEWR” as the sequence, how does the “soluble on expression in E. coli” value read?
**A.** soluble

**Q.** For “MSFEEKTFKWLMNQKFYHGYLPREDLPYVLKKKGDFIFRVTERTVGKEQKKDIVLSIAWPTESVAMIDTKDIKNYLIERSANSVWLDLKISFHSIDALYNHYRKNELVHPNLRIKLGRPICLFFWEFKHSQINLIKKVGKGAYGEVFKGTVTRGNKTFNGAIKAMRKDLDAGNEKMKEVMAEARLMRSLNHPNIVRCRGIAVLEQPVYIVIEFINGGGLDSYLKKNSQTLTMDQKNRMAISAAWGIEFMHSHDIIHRDIAARNCLYDNKNLVKLSDFGLSRKGSVYRMKKAMKMPTKWLAPESLTTFTFSGASDVYTFGVLLYEIYTCQEPYLAVKAGEAKRYILSGAFPNFTKQAPPELNEIVKKSIYQLDPAKRDTMKVIVKKLETWLDVELVLDENEKPDIDPESNRFNGNMPIRVDSSTKKMRNDTVCIPPPETATVALPNSLPPITVSARSKNSRKSTLKRKKKKTSKDSSMTTTTTNTNESEPPADGQVISSETMSVANKMVSDAKGGSPEMLTPSLEELKPSSQENETFLNEKNSTAKN”, which “soluble on expression in E. coli” value is on record?
**A.** not soluble

**Q.** With “MGSDKIHHHHHHMEASSGHQLMAETLGKFVSLVSKRLPDDVMAKLTELKGIETEPLAKSLYACMFENMEKAESLNRPTCQDTGVIQFFVRAGAKFPYLGELRGILKEATILSTKQAPLRLNAVEPFDEKNTGTNVGTKVPWIEWDIVSDDDSVEIEVYMAGGGCSLPGRSIVLPPLAGYEGAVKFVFDTIVEWGINACPPLTVGVGIGTCSTSAAKLSKMAMLRKLGSSNPHPRAAEMERRIQEGLDAIGLGPQGISGHRSVLGVHVEGMAHHPSVLGVGVTVGCWANRHGIIQFNKNLQYTMISHQGVEL” as the sequence, how does the “soluble on expression in E. coli” value read?
**A.** not soluble

**Q.** Which “soluble on expression in E. coli” value does the source give for “SKRAATLTDIKHIKQLDLSDHKSLEFARDIFLFSFYMRGMSFIDLAYLRKKDLNSGFVSYSRRKTGKKLIIRWEKQMQEIIDRYGDSETQYLLPIIEREDGTEHRQYRNKMLLVNRKLKKIAARAGLTTPLTMYVARHSWASIAKTKNISIGIISEAMGHDSETTTQIYLSSIQTNQIDNANRN” here?
**A.** not soluble

**Q.** Which “soluble on expression in E. coli” value does the source give for “MSQMMQMYQQVGPAQFSAMIGQFAPYFASIAPQFVELRPGYAEVTFPKRREVLNHIGTVHAIALCNAAELAAGTMTDASIPAGHRWIPRGMTVEYLAKATGDVRAVADGSQIDWQATGNLVVPVVAYVDDKPVFRAEITMYVSQA” here?
**A.** soluble

**Q.** With “MVAVSFGAAFRETLEGSGNPQDEFEKLEFEEAYWPELYTTRGPEDDEIYQPFIGPWDYETDLPELHETQGPEDNEVYQPFPGPCFP” as the sequence, how does the “soluble on expression in E. coli” value read?
**A.** not soluble

**Q.** For “MAHHHHHHMSKAVQFSVLKQGSLEPGSWTQRVLTIDTKSDTVTISRKHHPEHVFYHSLEVAHVQMWPRYKASEISGHFNSLKAKMTLRIFGKQVPVPKMSVEAVTTADVAEMIRVPSVPSSISLDASLNIERPPVAAATLSQKQKERHPATATSANDDLCDSWMIRFTSIDSYELAVMLLRNMRNTEGKRKRLFGDHVLQDLERVQKAWAEETTGAKSIGGALRSGS”, which “soluble on expression in E. coli” value is on record?
**A.** soluble

**Q.** With “MAKAGREGPRDSVWLSGEGRRGGRRGGQPSGLDRDRITGVTVRLLDTEGLTGFSMRRLAAELNVTAMSVYWYVDTKDQLLELALDAVFGELRHPDPDAGLDWREELRALARENRALLVRHPWSSRLVGTYLNIGPHSLAFSRAVQNVVRRSGLPAHRLTGAISAVFQFVYGYGTIEGRFLARVADTGLSPEEYFQDSMTAVTEVPDTAGVIEDAQDIMAARGGDTVAEMLDRDFEFALDLLVAGIDAMVEQA” as the sequence, how does the “soluble on expression in E. coli” value read?
**A.** soluble

**Q.** For “MYRQGTNQSVCSDADEFTPEELQEFAQAFKLFDKDGNNTMNIKELGEAMRMLGLNPTEEELLNMVNEYDVDGNGKIDFGEFCKMMKEMNKETDQELIRLAFKVFDKDGNGYITAQEFKHFMTTMGERFSEEEVDEIIREVDKDGDEQIDLDEFVNMVAPIVSDGTKTDPFLEPTASTNPPTK”, which “soluble on expression in E. coli” value is on record?
**A.** not soluble

**Q.** With “MGHHHHHHSHPRNSCSLHYIHPYQPNEYLKALVAVGEICQDYDSDKMFPAFGFGARIPPEYTVSHDFAINFNEDNPECAGIQGVVEAYQSCLPKLQLYGPTNIAPIIQKVAKSASEETNTKEASQYFILLILTDGVITDMADTREAIVHASHLPMSVIIVGVGNADFSDMQMLDGDDGILRSPKGEPVLRDIVQFVPFRNFKHASPAALAKSVLAEVPNQVVDYYNGKGIKPKCSSEMYESSRTLAP” as the sequence, how does the “soluble on expression in E. coli” value read?
**A.** not soluble

**Q.** Which “soluble on expression in E. coli” value does the source give for “MGSDKIHHHHHHMSSKVKVIAFYLPQFHPIPENDEWWGKGFTEWTSVGRAKKYYRGHYQPRVPADLGYYDLRLPQVRQQQADLAKEAGISAFCYWHYWFGNGKQLLENPLQEVVKLGEPDFPFCLGWANHTWLNKSWNREKQTVIPKPLILQEYPGKKDVDCHFYTMLPMFRDQRYFRIHGKLLFLIYAPLDIPNFKYFKMRWNELASQNDLPGFYFIANSEDISNIKNPIIREFEAVSLCRLYSAWNIEGKKVNNIVIRITRNISRILGYSLNKISYKKAIEKIDTPYYEEDRVYPNIIPGWDNSPRRGPGAFIFHKATPALFKKHVKMILNRIKDKPDEDKVIFLKSWNEWAEGNYMEPDLKWGKGYIRALREALEEDAK” here?
**A.** not soluble

**Q.** With “MAHHHHHHMEDDFHVDEEYIKQLSEKYKNAEHPLFMDELPANIEENEDLHALYNLMIDDEDELSLAKNFKQVGNDYYQDGTKYFEDAIISYTKGIDILTKYWEDKNLEKRKAERGKLRNDSNSSPTEGTKSNAQNVSSQRISNGVSIENGESTAGEEAGKPAVKGDSTSSRKGTEITVLNGLHNEGGHRDDLRDNEIRGVLADLHCNRAIVHYKKKRYVKCLQDCRKAYAFNQTKFKSVYYSILCSYHLELYKDAHMYVNRFEDMTKSIDLKNHINLNEYEKMKEIIFKKDEDILERKKVDQNEKRKAEENEKNVANLVQDILHKRNIQMVENVYQQGNNVIPVLYVDTSMYIHFTVFLLYFERAIMETIIDFAENQSIMDHYDIVKKNKNNHLLFCYIEFPYDVFFMIHSSSYICDVLNRAKLFSPILSIHIIENEEANRQFRSGKTIKSIPL” as the sequence, how does the “soluble on expression in E. coli” value read?
**A.** not soluble

**Q.** With “GPGSMSSSPNPMGAGTASATPKSTGGPEASPGSVRRSTLYAVLNVSHTATLEEITAAYRKLALVYHPDRPNGLQWKFQEIQRAYEVLSQKDARAKYDILLRGKLAVKNFKRPPPLESVLQPVYALLADGAFYEFEAASSKLKCSFHYGDGIQFNGDCGSFIGLAGDGFIYWTISGRGFASRLCKAGSTFALSSVRVMYRSNMGLAKMPLKRSSLHSSHTCRPAGSSGDKRAVRGSTGDAGCSERAKSTTGARAAKMSEADRIKKALLNKERSRNLKRRMETLKEEEIEARNSLQQDLWGQFSSLHTTAEVAFRCTLQGVAVPVEMALWMGYKSPEEVMLRSSGACSSLFIAEQVSLQTSSLWVDPLQSDYFNDDEMLREGCDGNKEDRKHCTSNGRDVTARHKPDSADSSPCSSQSSPASDGAPDGDACRGRSATASGTHSPILHRLNNGATAVTGASDGAEVAKKE” as the sequence, how does the “soluble on expression in E. coli” value read?
**A.** not soluble

**Q.** With “PHRPVQESVANAYDALGGYLEAKADFFDPDEAAWIGNRHIDLAMSNTGVITAFNQCRSALFYRLRGKHRHPRTAKMLRYYFAAQDIHERISSAHVDYQEMSEKFKNTDIIFRIHRLLEMQGQACRNTAQALRASKDYVYSKRLGRAIEGCRQSLRLLSDSNDSPDIRHLRRLLDNLGSVDQQFRQLQHNGLQAENDRMGDTRIAALETSSLKNTWQAIRPQLNLESGVFRH” as the sequence, how does the “soluble on expression in E. coli” value read?
**A.** not soluble

**Q.** For “MGSDKIHHHHHHLRNSIDLTKKIKEKAFEEGFDAVGIAKVPGSSRIKLRTASLERWLQAGHQATMEWMKSPRRKDIENMLQGVKSILAVGLNYYVDTERESKDISIARYGWGKDYHKIIEEKLKKVAKFLETERPNAKWKICVDTSAFLDKAWAEEAGIGWIGKHSNVINSEIGSWMFLGHLLSTEVLEADKPSKPICGECEKCIEACPTKAIEEPFIVNSYKCLAYHTLENRDQELPENIINKMGNWIAGCDICQDVCPWNQKHIPSTTEPDLQPSEWILHTTKQDLLSWDDAKWKESLKNSALKRIKPWMWRRNIDSISKKT”, which “soluble on expression in E. coli” value is on record?
**A.** not soluble

**Q.** With “MQARWIGNMMFHVRTDSNHDVLMDTKEEVGGKDAAPRPLELVLTGLMGCTGMDVVSILRKMKVIDQMKDFRIEIEYERTEEHPRIFTKVHLKYIFKFDGEPPKDKVEKAVQLSQEKYCSVSAILKCSSKVTYEIVYEN” as the sequence, how does the “soluble on expression in E. coli” value read?
**A.** not soluble

**Q.** For “MGSDKIHHHHHHMEILLARQPIVDRFGSIDAFELLYRSVETPAVFDGDLATMDVLTNTLIHLGVDRVAEGKRLFINFTGDLLQSELIDHLNPTQFVIEVLETVQIDEMMLQTLQKWKEAGFVLALDDFVTDLLRHHGPELFDLIDLIKIDIEAINPREQSAILHILKRNYPHIRFLAERVETHEDHTRSLAMGYDWFQGYFYAKPMLMKGKAVPPQVPVLLKMLKWLDTDDHYDDVVDEIEGNPYISVQVLQLINSPGIGLRNMVSSVRQAISLLGFSQLKSWISLIVLREMKLASPYQWSDELLRSSLHCAKLCQLFATETKTLKAESAYMIGLLSHIDALLSVDIGEIIDQLPIEPALKNVLQGEDHPFRDCLLLAISADRGEFERFEMLSNRFGIMKHRAYELLKESQVWLSQKELHLQDKTDSIV”, which “soluble on expression in E. coli” value is on record?
**A.** not soluble

From the DeepSol protein solubility set
